Laboratory results from publication PMC3024946, “Hydroxyproline-containing collagen analogs trigger the release and activation of collagen-sequestered proMMP-2 by competition with prodomain-derived peptide P33-42” (Fibrogenesis & Tissue Repair, 2011).

Experiments:
collagen type I (CI) [1] = assay: SPR binding of MMPs to immobilized CI, nonactivating buffer; parameters: species or system human; conditions: for Off rate / Kd: without (GPO)10, MMP 100 nM, PBS, 0.05% Tween 20, 25°C; for Off rate: mean from at least three experiments; for Kd: mean ± SD, at least three experiments
Protocol: (§1) Sensor chip preparations and SPR measurements were performed using a BiacoreX device and the Bia-evaluation software (version 3.2; Biacore, Uppsala, Sweden). The pepsin-resistant triple-helical part of human fibrillar CI (100 μg/ml) in 10 mM acetate coupling buffer, pH 4.8, was immobilized to a dextran matrix-sensor chip at a flow rate of 5 μl/min, resulting in 5,500 resonance units from CI covalently linked via its primary amino groups. The control flow cell was prepared using the coupling buffer without CI. Surfaces were activated and blocked as described previously. Immediately after thawing, pro- and actMMP-2 and pro- and actMMP-9 were diluted to 100 to 250 nM in MMP activity buffer or in PBS and 0.05% (vol/vol) Tween 20. For SPR measurements, flow rates were 10 μl/min at 25°C, and equilibrium was typically reached after 30 to 60 s. The effects of (GPO)10, GAP, (POG)5, (GPP)10 and P33-42 on MMP-2 and MMP-9 binding to CI and their enzymatic activity were determined by adding the binding competitors to the (pro- and act)MMP-2 and MMP-9 solution in 10- to 150-fold molar excesses. Effects independent of MMP-2 and MMP-9 activity were monitored in the presence of Ro 28-2653 (1 μM) during SPR analysis. The gelatinase inhibitor Ro 28-2653 was a generous gift from H.-W. Krell (Roche, Grenzach-Wyhlen, Germany). Sensor surfaces were regenerated with 10 mM glycine, pH 2.3, for 1 min between runs, and sensor chips were used up to 25 times. Kinetic parameters were analyzed using the 1:1 binding model with drifting baseline and subtraction of the control flow cell binding from sensorgrams obtained with immobilized CI. Binding constants (Kd) were calculated from the association (ka) and dissociation rates (kd) obtained from individual binding curves at different concentrations. Individual drifts of the resonance signal were fitted locally, and χ^2 values of 0.2% to 1.0% of the maximum resonance value were considered good fits.

[2] = In situ binding of MMPs to fibrotic liver sections; parameters: species or system human; conditions: immunohistochemistry; 25 ng MMP, 30 min
Protocol: Human cirrhotic liver cryostat sections (5 μm) were air-dried and fixed in ice-cold acetone for 10 min. Tissue sections were rehydrated with PBS and incubated with 25 ng/50 μl of the respective proMMP and actMMP for 30 min or were left untreated. After thorough washing with PBS, antibodies specific for human MMP-9 (clone MAB911; R&D Systems, Minneapolis, MN, USA) and human MMP-2 (clone 75-7F7; Oncogene, Cambridge, MA, USA) were applied, and primary antibody binding was detected using the alkaline phosphatase-antialkaline phosphatase detection system (Dako, Hamburg, Germany). An irrelevant primary mouse antibody served as control. Nuclei were counterstained with Hemalaun, and slides were examined by standard light microscopy.

ProMMP-2 = assay: DQ-gelatine degradation assay with MMP-2; assay type: biochemical, human; conditions: MMP alone; 10 ng; 5 h at 25°C; plateau (actMMP-2) or baseline (proMMP-2) level
collagen type I (CI) [3] = assay: SPR binding of MMP-2 to CI, MMP activity buffer with Ro 28-2653; parameters: species or system human
Protocol: as §1

Off rate (collagen type I (CI) [1])	Kd (collagen type I (CI) [1])	binding to liver sections [2]	reduction of binding upon MMP activation (collagen type I (CI) [1]; nonactivating buffer)	reduction of binding upon MMP activation (collagen type I (CI) [3]; MMP activity buffer with Ro 28-2653)	binding enhancement to CI (collagen type I (CI) [3]; MMP activity buffer with Ro 28-2653 vs nonactivating buffer)	Kd (collagen type I (CI) [3]; no competitor, MMP-2 100 nM, MMP activity buffer, 1 μM Ro 28-2653, 25°C, mean ± SD, at least three experiments)	Molecule	DQ-gelatine conversion (ProMMP-2)
0.32 s⁻¹	120 ± 90 nM	preferential staining of fibrotic septa	–	–	–	–	ProMMP-9: 92-kDa latent proform of human recombinant MMP-9 (protein, [125I]-Bolton-Hunter label in the solid-phase assays (dot blot, microwells); no label told for SPR and immunohistochemistry) APRQRQSTLVLFPGDLRTNLTDRQLAEEYLYRYGYTRVAEMRGESKSLGPALLLLQKQLSLPETGELDSATLKAMRTPRCGVPDLGRFQTFEGDLKWHHHNITYWIQNYSEDLPRAVIDDAFARAFALWSAVTPLTFTRVYSRDADIVIQFGVAEHGDGYPFDGKDGLLAHAFPPGPGIQGDAHFDDDELWSLGKGVVVPTRFGNADGAACHFPFIFEGRSYSACTTDGRSDGLPWCSTTANYDTDDRFGFCPSERLYTQDGNADGKPCQFPFIFQGQSYSACTTDGRSDGYRWCATTANYDRDKLFGFCPTRADSTVMGGNSAGELCVFPFTFLGKEYSTCTSEGRGDGRLWCATTSNFDSDKKWGFCPDQGYSLFLVAAHEFGHALGLDHSSVPEALMYPMYRFTEGPPLHKDDVNGIRHLYGPRPEPEPRPPTTTTPQPTAPPTVCPTGPPTVHPSERPTAGPTGPPSAGPTGPPTAGPSTATTVPLSPVDDACNVNIFDAIAEIGNQLYLFKDGKYWRFSEGRGSRPQGPFLIADKWPALPRKLDSVFEERLSKKLFFFSGRQVWVYTGASVLGPRRLDKLGLGADVAQVTGALRSGRGKMLLFSGRRLWRFDVKAQMVDPRSASEVDRMFPGVPLDTHDVFQYREKAYFCQDRFYWRVSSRSELNQVDQVGYVTYDILQCPED	–
~0.48 s⁻¹	70 ± 30 nM	preferential staining of fibrotic septa	2.5 -fold	35 -fold	10 -fold	7.1 ± 0.1 nM	ProMMP-2: 72-kDa latent proform of human recombinant MMP-2 (protein, [125I]-Bolton-Hunter label in the solid-phase assays (dot blot, microwells); Cy2 label in the tissue release experiment; no label told for SPR and immunohistochemistry) APSPIIKFPGDVAPKTDKELAVQYLNTFYGCPKESCNLFVLKDTLKKMQKFFGLPQTGDLDQNTIETMRKPRCGNPDVANYNFFPRKPKWDKNQITYRIIGYTPDLDPETVDDAFARAFQVWSDVTPLRFSRIHDGEADIMINFGRWEHGDGYPFDGKDGLLAHAFAPGTGVGGDSHFDDDELWTLGEGQVVRVKYGNADGEYCKFPFLFNGKEYNSCTDTGRSDGFLWCSTTYNFEKDGKYGFCPHEALFTMGGNAEGQPCKFPFRFQGTSYDSCTTEGRTDGYRWCGTTEDYDRDKKYGFCPETAMSTVGGNSEGAPCVFPFTFLGNKYESCTSAGRSDGKMWCATTANYDDDRKWGFCPDQGYSLFLVAAHEFGHAMGLEHSQDPGALMAPIYTYTKNFRLSQDDIKGIQELYGASPDIDLGTGPTPTLGPVTPEICKQDIVFDGIAQIRGEIFFFKDRFIWRTVTPRDKPMGPLLVATFWPELPEKIDAVYEAPQEEKAVFFAGNEYWIYSASTLERGYPKPLTSLGLPPDVQRVDAAFNWSKNKKTYIFAGDKFWRYNEVKKKMDPGFPKLIADAWNAIPDNLDAVVDLQGGGHSYFFKGAYYLKLENQSLKSVKFGSIKSDWLGC	about 200 relative fluorescence units
